In this data set the test system is iBBB (human iPSC-derived BBB). The experiment in a line: Aβ(1–40) / Aβ(1–42) transcytosis and paracellular permeability assay, iBBB (transwell). Conditions: Cy3-labeled Aβ(1–40) added to the abluminal side, 20 nM, 37 °C, 1 h, fluorescence.

Protocol: For iBBBs, iPSC-derived brain endothelial cells (iECs) were dissociated by Accutase, resuspended with hECSR1 supplemented with 10 μM Y27632 and then seeded onto a 24-well Matrigel-coated Transwell at a density of 10^6 cells per cm^2 to complete a confluent monolayer for 24 h. Afterwards, the iPCs, iASs or MEFs were seeded on top of the iEC monolayer culture at a density of 5 × 10^4 cells per cm^2. The iBBBs were further cultured for 12 or 14 days.
For analysis of bottom (apical) to top (basolateral) permeability, 500 μl of medium containing the fluorescent proteins was added to the lower chamber; for analysis of top to bottom permeability, 100 μl medium of the fluorescent proteins was added to the top chamber. Permeability assays were conducted at 37 °C for 1 h. Media from the bottom chamber or the top transwell insert were collected and analyzed by a fluorescence plate reader (Molecular Devices). The rationale for using the indicated final concentrations for each protein was that the levels of diffused or transcytosed proteins were within a detectable range via fluorescence.

Turning to “Aβ(1-40): Cy3-labeled amyloid beta (1–40) peptide used as fluorescent permeant at 20 nM in the BBB models”, the “increase of permeability in WT iBBB compared to iECs co-cultured with MEFs” value is 12%.

Values taken from PMC10733300, “ANKS1A regulates LDL receptor-related protein 1 (LRP1)-mediated cerebrovascular clearance in brain endothelial cells” (Nature Communications, 2023).
